Laboratory results reported in publication PMC3162478 (Nature, 2011).

Columns and labels:
[1] = biological target: T1, FimD usher, full-length (undigested), with C-terminal Strep-tag II (Escherichia coli, UniProt P30130 46-878); assay: AUC
T1 sequence: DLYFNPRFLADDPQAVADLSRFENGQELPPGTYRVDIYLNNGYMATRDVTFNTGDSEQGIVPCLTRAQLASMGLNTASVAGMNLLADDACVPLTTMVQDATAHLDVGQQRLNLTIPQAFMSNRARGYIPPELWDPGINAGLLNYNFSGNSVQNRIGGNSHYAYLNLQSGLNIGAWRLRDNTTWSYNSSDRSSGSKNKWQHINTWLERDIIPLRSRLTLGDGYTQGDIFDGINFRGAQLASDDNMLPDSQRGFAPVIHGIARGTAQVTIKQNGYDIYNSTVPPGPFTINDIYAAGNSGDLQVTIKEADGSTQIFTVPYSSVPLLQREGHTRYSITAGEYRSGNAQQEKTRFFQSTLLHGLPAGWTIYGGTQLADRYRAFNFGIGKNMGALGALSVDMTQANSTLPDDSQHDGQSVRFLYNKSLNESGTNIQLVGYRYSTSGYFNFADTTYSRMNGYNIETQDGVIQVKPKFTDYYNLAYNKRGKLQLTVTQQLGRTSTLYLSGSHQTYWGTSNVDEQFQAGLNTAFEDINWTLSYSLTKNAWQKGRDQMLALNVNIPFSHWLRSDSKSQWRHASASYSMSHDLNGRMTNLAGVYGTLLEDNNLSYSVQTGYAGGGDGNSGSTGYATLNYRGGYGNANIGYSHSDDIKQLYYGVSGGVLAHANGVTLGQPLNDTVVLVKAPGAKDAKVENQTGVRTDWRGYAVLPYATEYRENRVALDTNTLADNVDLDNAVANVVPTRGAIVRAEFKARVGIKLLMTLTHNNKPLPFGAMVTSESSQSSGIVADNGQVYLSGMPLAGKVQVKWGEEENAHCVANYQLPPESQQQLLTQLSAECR

FimH adhesin = FimH adhesin (Escherichia coli, UniProt P08191 22-300); assay: AUC
FimH adhesin, sequence (P08191 22-300): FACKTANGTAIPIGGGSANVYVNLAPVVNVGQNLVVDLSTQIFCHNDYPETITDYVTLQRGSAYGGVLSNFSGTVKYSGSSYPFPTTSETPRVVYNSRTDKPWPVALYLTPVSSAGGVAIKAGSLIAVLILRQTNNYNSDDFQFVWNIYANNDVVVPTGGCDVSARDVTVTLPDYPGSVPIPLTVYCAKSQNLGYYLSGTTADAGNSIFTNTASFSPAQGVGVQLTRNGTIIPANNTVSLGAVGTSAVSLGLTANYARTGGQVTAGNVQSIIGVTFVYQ

- stoichiometry N [1]: 1
- stoichiometry N (FimH adhesin): 1
B1: FimC chaperone (His-tagged, from pETS1001 fimCHisH) (natural protein)
chain: GVALGATRVIYPAGQKQEQLAVTNNDENSTYLIQSWVENADGVKDGRFIVTPPLFAMKGKKENTLRILDATNNQLPQDRESLFWMNVKAIPSMDKSKLTENTLQLAIISRIKLYYRPAKLALPPDQAAEKLRFRRSANSLTLINPTPYYLTVTELNAGTRVLENALVPPMGESTVKLPSDAGSNITYRTINDYGALTPKMTGVME
